Measured values from patent US20240059782A1 (AGILENT TECHNOLOGIES, published 2024).

Experiments:
[1] = molecular target: T1, recombinant fusion protein containing the entire extracellular domain of human BCMA (amino acids 1-54) in … (human, UniProt Q02223 1-54); test: BLI (BLItz), recombinant antibody on the immunising antigen
T1 construct: range 1-54; Expressed in HEK cells; also called BCMA antigen; extracellular BCMA antigen; not shown: rabbit Fc domain
T1 sequence (looked up): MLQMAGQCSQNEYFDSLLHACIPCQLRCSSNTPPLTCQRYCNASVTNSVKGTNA

[2] = molecular target: T2, human B-cell maturation antigen (BCMA) (human, UniProt Q02223 1-184); test: supersensitive IHC on normal colon
T2 construct: whole, on cells; Endogenous BCMA in tissue sections and BCMA-positive cell lines; also called tumor necrosis factor receptor superfamily member 17; TNFRSF17
T2 sequence (looked up): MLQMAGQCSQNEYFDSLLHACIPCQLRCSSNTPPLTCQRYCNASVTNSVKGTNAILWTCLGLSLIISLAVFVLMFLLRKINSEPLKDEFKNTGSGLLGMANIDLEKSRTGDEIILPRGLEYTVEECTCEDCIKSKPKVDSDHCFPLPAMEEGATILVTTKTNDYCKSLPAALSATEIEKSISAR

[3] = molecular target: T2, human B-cell maturation antigen (BCMA); test: standard IHC (Envision FLEX) on reactive lymph node
[4] = molecular target: T3, recombinant fusion protein containing the entire intracellular domain of BCMA (amino acids 78-184) (human, UniProt Q02223 78-184); test: BLI (BLItz), recombinant antibody on the immunising antigen
T3 construct: range 78-184; also called intracellular BCMA antigen; the antigen
T3 sequence (looked up): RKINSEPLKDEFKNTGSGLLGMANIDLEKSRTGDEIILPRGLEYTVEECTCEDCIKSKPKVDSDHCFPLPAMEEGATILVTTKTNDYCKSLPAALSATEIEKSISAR

[5] = molecular target: T2, human B-cell maturation antigen (BCMA); test: supersensitive IHC on reactive lymph node

B1: anti-human BCMA antibody clone 9H5 (Extracellular) (antibody, V domains shown)
VH: QSLEESGGRLVTPGGSLTLTCTVSGFSLSAYAMSWVRQAPGKGLEWIGYINYDGIAYYTNWAKGRFTISKTSTTVDLKITSPTTEDTAAYFCASDLLGVFNLWGQGTLVTVSS
VL: AAVLTQTASPVSAAVGGTVTINCQASQSVYSNNRLSWFQQKPGQPPKLLIYYASFLASGVPSRFKGSGSGAQFTLTISDLQCDDAATYYCAGGYISYSDNAFGGGTEVVVKG
notes: Rabbit monoclonal IgG/kappa1; The chains are built here from V + constant entries so that the signal peptide is left out; Supersensitive IHC used B-cell culture supernatant; BLI and standard IHC used recombinant antibody from HEK293-6E cells; also called B cell clone 9H5; BCMA clone 9H5
[1]
  binding result: binds
[2]
  binding result: binds

B2: anti-human BCMA antibody clone 10A2 (Extracellular) (antibody, V domains shown)
VH: QSVEESGGRLVTPGTPLTLTCTASGFSLTTYAMGWVRQAPGKGLEWIGYIWSSGTTDYASWAKGRFTISKTSPTVDLKMTSPTTEDTATYFCARYINYVTGDLWGQGTLVTVSS
VL: AQVLTQTPSPVSADVGGTVTINCQASQSVYNNVLLAWYQQKAGQPPKLLIYKASTLASGVSSRFKGSGSGTQFTLTISGVQCDDAATYYCQGEFSCSSADCTAFGGGTEVVVKG
notes: Rabbit monoclonal IgG/kappa1; The chains are built here from V + constant entries so that the signal peptide is left out; Supersensitive IHC used B-cell culture supernatant; BLI and standard IHC used recombinant antibody from HEK293-6E cells; also called B cell clone 10A2; BCMA clone 10A2
[3]
  binding result: binds
[1]
  binding result: binds

B3: anti-human BCMA antibody clone 5C1 (intracellular) (antibody, V domains shown)
VH: QSLEESRGGLFKPTDTLTLTCTVSGFSLKTYVINWVRQAPGNGLEWIGIIDTGDMTYYASWAKSRSTITRNTNENTVTLKMTSLTAADTATYFCASGDIWGPGTLVTVSS
VL: AQVLTQTASPVSAAVGGTVTINCQASQSVYSNWLSWFQQKPGQPPKRLIYSASTLASGVSSRFKGSGSGTQFTLTISDVQCDDAATYYCLGEFNCARADCRAFGGGTEVVVKG
notes: Rabbit monoclonal IgG/kappa1; also called B cell clone 5C1; intracellular clone 5C1
[4]
  binding result: binds
[5]
  binding result: binds
